Results on two molecules are retold here after PMC6738654, “BZU2/ZmMUTE controls symmetrical division of guard mother cell and specifies neighbor cell fate in maize”.

The target of the data set is T1, BZU2/ZmMUTE-ΔC (Zea mays, UniProt K7V1X7 1-189).
T1 sequence: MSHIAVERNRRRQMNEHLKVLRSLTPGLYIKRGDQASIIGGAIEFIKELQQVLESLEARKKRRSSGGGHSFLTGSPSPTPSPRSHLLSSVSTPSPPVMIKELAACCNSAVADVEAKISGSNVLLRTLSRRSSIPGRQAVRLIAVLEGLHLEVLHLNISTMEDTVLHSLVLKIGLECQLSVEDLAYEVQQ
Briefly: EMSA; cold probe competitor 2-, 5-, 10-fold; LightShift Chemiluminescent EMSA Kit (Thermo) per manufacturer; buffer, salt, pH and temperature not stated. Particulars: protein: recombinant; chain copies: 2; label: 5' biotin (cold probe unlabeled); blunt.

B1: P2 (PAN2 promoter E-boxes -187, -200) (dsDNA)
DNA 1: CAGCCACAACAGGTGTCCCTTTCAAGTGATCTCTGCA
DNA 2: TGCAGAGATCACTTGAAAGGGACACCTGTTGTGGCTG
As for B1, the binding result is given as “binds”.

B2: P1 (PAN1 promoter E-box -27) (dsDNA)
DNA 1: GAATGAGGGGCACCTGGAGAGCACAT
DNA 2: ATGTGCTCTCCAGGTGCCCCTCATTC
In the case of B2, the binding result is “binds”.
